Measurements: patent publication US20070173444A1 (AFFYMAX, published 2007)
Bridge positions count the residues as written; N and C are the ends. Square brackets hold non-standard residues; d marks the D form. Ends that are not written are not given here. Ahx = NCCCCCC(=O)O

Columns and labels:
[1] = target: T1, native IL-5R a/β complex on TF-1 cells (human, UniProt Q01344 21-420; P32927 17-897); assay: cell-based or functional assay
T1 sequence (looked up) 1: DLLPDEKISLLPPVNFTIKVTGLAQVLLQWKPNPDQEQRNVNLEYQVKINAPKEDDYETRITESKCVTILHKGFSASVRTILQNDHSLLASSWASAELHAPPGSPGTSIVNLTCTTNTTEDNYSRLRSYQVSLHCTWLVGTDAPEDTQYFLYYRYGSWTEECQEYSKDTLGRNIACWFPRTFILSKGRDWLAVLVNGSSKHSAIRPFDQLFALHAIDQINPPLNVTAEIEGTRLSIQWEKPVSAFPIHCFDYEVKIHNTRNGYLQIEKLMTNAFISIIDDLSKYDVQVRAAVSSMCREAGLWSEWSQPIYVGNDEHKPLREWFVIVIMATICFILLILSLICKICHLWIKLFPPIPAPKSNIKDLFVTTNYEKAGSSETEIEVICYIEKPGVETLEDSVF
T1 sequence (looked up) 2: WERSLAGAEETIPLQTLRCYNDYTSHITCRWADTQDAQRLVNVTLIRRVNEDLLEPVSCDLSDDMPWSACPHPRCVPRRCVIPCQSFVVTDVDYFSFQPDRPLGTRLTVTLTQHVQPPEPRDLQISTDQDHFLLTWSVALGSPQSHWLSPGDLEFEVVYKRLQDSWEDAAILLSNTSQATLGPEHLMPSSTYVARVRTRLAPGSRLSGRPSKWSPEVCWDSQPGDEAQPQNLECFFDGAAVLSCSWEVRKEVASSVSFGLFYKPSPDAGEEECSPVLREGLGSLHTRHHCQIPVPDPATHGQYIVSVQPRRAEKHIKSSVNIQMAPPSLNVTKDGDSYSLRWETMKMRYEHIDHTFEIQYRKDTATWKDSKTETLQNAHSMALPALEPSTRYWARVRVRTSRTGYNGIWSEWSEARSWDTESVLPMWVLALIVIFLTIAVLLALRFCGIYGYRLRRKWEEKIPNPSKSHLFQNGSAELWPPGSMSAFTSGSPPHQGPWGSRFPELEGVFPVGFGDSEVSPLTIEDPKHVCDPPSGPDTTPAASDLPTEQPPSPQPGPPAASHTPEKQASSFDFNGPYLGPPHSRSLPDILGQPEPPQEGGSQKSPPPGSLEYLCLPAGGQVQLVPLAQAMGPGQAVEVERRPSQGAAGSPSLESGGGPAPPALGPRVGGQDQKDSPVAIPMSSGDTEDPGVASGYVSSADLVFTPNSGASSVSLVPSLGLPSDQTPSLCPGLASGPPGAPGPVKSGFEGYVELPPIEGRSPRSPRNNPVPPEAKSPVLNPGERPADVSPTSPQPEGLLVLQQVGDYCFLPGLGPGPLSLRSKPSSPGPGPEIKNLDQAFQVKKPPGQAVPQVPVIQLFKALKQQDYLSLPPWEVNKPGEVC

[2] = target: T2, IL-5RaECD (the extracellular domain (ECD) of the human IL-5 receptor a chain) (human, UniProt Q01344 21-342, extensively glycosylated); assay: scintillation proximity competition assay, 20 pM [125I] IL-5, soluble IL-5Ra on beads; dimer of the printed monomer
T2 construct: extracellular domain; also called IL-5RαECD; soluble IL-5Ra
T2 sequence (Q01344 21-342, looked up): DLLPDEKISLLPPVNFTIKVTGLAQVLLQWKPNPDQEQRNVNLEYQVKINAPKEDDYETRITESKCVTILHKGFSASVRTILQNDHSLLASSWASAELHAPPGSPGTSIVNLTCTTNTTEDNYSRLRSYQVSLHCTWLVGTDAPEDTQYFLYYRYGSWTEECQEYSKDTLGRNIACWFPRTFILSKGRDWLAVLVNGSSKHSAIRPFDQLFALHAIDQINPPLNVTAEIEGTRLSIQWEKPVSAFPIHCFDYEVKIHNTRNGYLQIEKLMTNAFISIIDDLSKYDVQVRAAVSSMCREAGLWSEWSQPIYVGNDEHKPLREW
Experimental: Binding affinities of synthetic peptides for IL-5Ra were measured in a scintillation proximity assay (SPA) using radio-iodinated IL-5. Streptavidin coated SPA beads (Amersham) were suspended in IL-5 binding buffer (phosphate buffered saline, 0.1% bovine serum albumin, 0.2% NaN3) at 2 mg beads/ml of buffer. Biotinylated mAb 179 was adsorbed onto the beads at a ratio of 2 ig Ab/mg beads by incubating the beads and antibody with agitation for at least 2 h. at 4. The beads were pelleted at 2500 rpm and resuspended at 2 mg/ml in binding buffer. Soluble IL-5Ra was then adsorbed onto the beads by diluting a solution of soluble receptor harvest 1:500 into the bead suspension and incubating with agitation for 2 hr at 4. The beads were again pelleted at 2500 rpm and resuspended at 2 mg/ml in binding buffer. Competition binding assays were carried out in 100p1 reactions in white polystyrene microtiter plates. These reactions contained 0.05 mg of receptor coated SPA beads, various concentrations of test peptide diluted in binding buffer, and 20 pM [₁₂₅I] IL-5 (Amersham). The plates were incubated at room temperature for 1 hour with agitation, then centrifuged for 5 min at 1500 rpm followed by scintillation counting on a Topcount instrument (Packard). Total binding was defined by the amount of [₁₂₅I] IL-5 bound in the absence of any competitor. Non-specific binding was defined by the amount of [₁₂₅I] IL-5 bound in the presence of 30 nM IL-5. Peptide binding data was analyzed to determine the peptide concentration required to reduce specific [₁₂₅I] IL-5 binding by 50% (IC₅₀). In each instance, the dimer has both intramolecular and intermolecular disulfide linkages as shown generically below: […]

[3] = target: T2, IL-5RaECD (the extracellular domain …); assay: competition with [125I] IL-5 for binding to IL-5Ra ECD; peptide assayed immediately after dissolving
Experimental: (§1) Binding affinities of synthetic peptides for IL-5Ra were measured in a competition binding assay using radio-iodinated IL-5. Immulon 4 (Dynatech) microtiter wells were coated with streptavidin (Sigma) by incubating 100 ul of a 50 ug/ml solution in PBS for 30 min. at 37. The wells were blocked with 200 ul of 1% BSA in PBS for 15 min. at 37, followed by 100 III of biotinylated monoclonal antibody, designated mAb 179, at 5 u. g/ml in PBS. Soluble IL-5Ra was then immobilized in the wells by incubating 100 µl of a solution of soluble receptor harvest diluted 1: 5000 in PBS/0.1% BSA for 1 hr. at 4. After washing away unbound receptor, 50 ul of various concentrations of test peptide diluted in PBS/0.1% BSA were added to the wells, followed by 50 µl of a fixed concentration of [₁₂₅I] IL-5 (Amersham). The binding reactions were incubated at 4 C for 2 hr, then washed with PBS to remove unbound [₁₂₅I] IL-5. Bound [₁₂₅I] IL-5 was determined by gamma counting.
(§2) Total binding was defined by the amount of [₁₂₅I] IL-5 bound in the absence of any competitor. Non-specific binding was defined by the amount of [₁₂₅I] IL-5 bound in the presence of 30 nM IL-5. Peptide binding data was analyzed to determine the peptide concentration required to reduce specific [₁₂₅I]

[4] = target: T2, IL-5RaECD (the extracellular domain …); assay: competition with [125I] IL-5 for binding to IL-5Ra ECD; peptide after 10 days (disulfide-linked dimer)
Experimental: as §1, §2

B1: dimer of (Ac)-EGYVCVEWAACPTCR-(NH2) (peptide)
peptide: Ac-EGYVCVEWAACPTCR-NH2
modifications: disulfide (positions not given here); also: dimer, intramolecular and intermolecular disulfides, places not given here
- Microphysiometer pIC50 (block of TF-1 cell response to IL-5) [1]: 6.9 negative log of the molar IC50

B2: dimer of (H)-EGYVCVEWARCPTCK-(OH) (peptide)
peptide: H-EGYVCVEWARCPTCK-OH
modifications: disulfide (positions not given here); also: dimer, intramolecular and intermolecular disulfide linkages, places not given here
- Microphysiometer pIC50 (block of TF-1 cell response to IL-5) [1]: 9.2 negative log of the molar IC50
- SPA pIC50 [2]: 8.7 negative log of the molar IC50

B3: dimer of (H)-EGYVCVEWARCPTCR-(OH) (peptide)
peptide: H-EGYVCVEWARCPTCR-OH
modifications: disulfide (positions not given here); also: dimer, intramolecular and intermolecular disulfide linkages, places not given here
- Microphysiometer pIC50 (block of TF-1 cell response to IL-5) [1]: 9.6 negative log of the molar IC50
- SPA pIC50 [2]: 8.4 negative log of the molar IC50

B4: dimer of (H)-EGYVCVEWARCPTCG-(NH2) (peptide)
peptide: H-EGYVCVEWARCPTCG-NH2
modifications: disulfide (positions not given here); also: dimer, intramolecular and intermolecular disulfide linkages, places not given here
- Microphysiometer pIC50 (block of TF-1 cell response to IL-5) [1]: 9.1 negative log of the molar IC50

Binder: TGGGDGYVCVEWARCPTCK (three Cys in free sulfhydryl form, T0005 prints 32-50) [AF17362 (three cysteine residues in the free sulfhydryl form)]
- IC50 [3]: 120 nM

B5: dimer of (Ac)-EGYVCVEWARCPTCR-(NH2) (peptide)
peptide: Ac-EGYVCVEWARCPTCR-NH2
modifications: disulfide (positions not given here); also: dimer, intramolecular and intermolecular disulfides, places not given here
- Microphysiometer pIC50 (block of TF-1 cell response to IL-5) [1]: 9.1 negative log of the molar IC50

B6: dimer of (H)-GYVCVEFARCPTCG-(NH2) (peptide)
peptide: H-GYVCVEFARCPTCG-NH2
modifications: disulfide (positions not given here); also: dimer, intramolecular and intermolecular disulfide linkages, places not given here
- SPA pIC50 [2]: 6.1 negative log of the molar IC50

B7: dimeric form of AF17362 (peptide)
peptide: TGGGDGYVCVEWARCPTCK
modifications: disulfide 15-18; also: dimer, interchain disulfide between Cys9 of each chain
notes: Formed by air oxidation in 50 mM Tris pH 7.8; said to be indistinguishable from AF18748; also called AF17362 after 10 days at room temperature; spontaneously formed disulfide-linked dimer
- IC50 [4]: 0.55 nM

B8: dimer of (H)-GYVCVEWARCPTCR-(OH) (peptide)
peptide: H-GYVCVEWARCPTCR-OH
modifications: disulfide (positions not given here); also: dimer, intramolecular and intermolecular disulfide linkages, places not given here
- Microphysiometer pIC50 (block of TF-1 cell response to IL-5) [1]: 8.4 negative log of the molar IC50
- SPA pIC50 [2]: 8.2 negative log of the molar IC50

B9: dimer of (Ac)-EGYVCVEWARCPTCK-(NH2) (peptide)
peptide: Ac-EGYVCVEWARCPTCK-NH2
modifications: disulfide (positions not given here); also: dimer, intramolecular and intermolecular disulfides, places not given here
- Microphysiometer pIC50 (block of TF-1 cell response to IL-5) [1]: 8.4 negative log of the molar IC50

B10: dimer of (Ahx)-EGYVCVEWARCPTCR-(NH2) (peptide)
peptide: [Ahx]EGYVCVEWARCPTCR-NH2
modifications: disulfide (positions not given here); also: dimer, intramolecular and intermolecular disulfides, places not given here
- Microphysiometer pIC50 (block of TF-1 cell response to IL-5) [1]: 9 negative log of the molar IC50

B11: dimer of (H)-EGYVCVEFARCPTCR-(OH) (peptide)
peptide: H-EGYVCVEFARCPTCR-OH
modifications: disulfide (positions not given here); also: dimer, intramolecular and intermolecular disulfides, places not given here
- SPA pIC50 [2]: 6.8 negative log of the molar IC50

B12: dimer of (H)-EGYVCVEWARCPTCR-(NH2) (peptide)
peptide: H-EGYVCVEWARCPTCR-NH2
modifications: disulfide (positions not given here); also: dimer, intramolecular and intermolecular disulfide linkages, places not given here
- Microphysiometer pIC50 (block of TF-1 cell response to IL-5) [1]: 9.1 negative log of the molar IC50
- SPA pIC50 [2]: 8.1 negative log of the molar IC50

B13: dimer of (H)-EGYVCVEFARCPTCR-(NH2) (peptide)
peptide: H-EGYVCVEFARCPTCR-NH2
modifications: disulfide (positions not given here); also: dimer, intramolecular and intermolecular disulfides, places not given here
- SPA pIC50 [2]: 6.4 negative log of the molar IC50

B14: dimer of (H)-EGYVCVEFARCPTCG-(NH2) (peptide)
peptide: H-EGYVCVEFARCPTCG-NH2
modifications: disulfide (positions not given here); also: dimer, intramolecular and intermolecular disulfides, places not given here
- SPA pIC50 [2]: 6.6 negative log of the molar IC50
